{"source": "paper PMC4320653", "molecules": {"B1": {"name": "TRBP3: third dsRBD of human TRBP with its N-terminal extension, residues 258-366 (domain or fragment)", "chain": "NRGPGCTWDSLRNSVGEKILSLRSCSLGSLGALGPACCRVLSELSEEQAFHVSYLDIEELSLSGLCQCLVELSTQPATVCHGSATTREAARGEAARRALQYLKIMAGSK"}, "B2": {"name": "human TRBP (isoform TRBP2, 366 residues), full-length, residues 1-366 (natural protein)", "chain": "MSEEEQGSGTTTGCGLPSIEQMLAANPGKTPISLLQEYGTRIGKTPVYDLLKAEGQAHQPNFTFRVTVGDTSCTGQGPSKKAAKHKAAEVALKHLKGGSMLEPALEDSSSFSPLDSSLPEDIPVFTAAAAATPVPSVVLTRSPPMELQPPVSPQQSECNPVGALQELVVQKGWRLPEYTVTQESGPAHRKEFTMTCRVERFIEIGSGTSKKLAKRNAAAKMLLRVHTVPLDARDGNEVEPDDDHFSIGVGSRLDGLRNRGPGCTWDSLRNSVGEKILSLRSCSLGSLGALGPACCRVLSELSEEQAFHVSYLDIEELSLSGLCQCLVELSTQPATVCHGSATTREAARGEAARRALQYLKIMAGSK"}}, "key": {"TRBP (Homo sapiens)": {"target": "TRBP (Homo sapiens) (UniProt Q15633)", "conditions": "cited from earlier work"}, "[1]": {"target": "human Dicer, wild type, full-length (human) (UniProt Q9UPY3)", "assay": "ITC"}}, "data": [{"molecule": "TRBP (from UniProt Q15633)", "values": [{"measurement": "Kd", "setting": "TRBP (Homo sapiens)", "value": 54000, "unit": "nM"}]}, {"molecule": "B1", "values": [{"measurement": "Kd", "setting": "[1]", "value": 4.3, "unit": "nM"}, {"measurement": "dH", "setting": "[1]", "value": -23.2, "unit": "kcal/mol"}, {"measurement": "stoichiometry N", "setting": "[1]", "value": 1.35}]}, {"molecule": "B2", "values": [{"measurement": "Kd", "setting": "[1]", "value": 2.8, "unit": "nM"}, {"measurement": "dH", "setting": "[1]", "value": -15.9, "unit": "kcal/mol"}, {"measurement": "stoichiometry N", "setting": "[1]", "value": 0.84}]}]}
